Results: patent US20200199196A1 (WASHINGTON UNIVERSITY, published 2020)

Tests used:
[1] = target: T1, monomeric OPG (monomeric fragment of OPG) (UniProt O08712 22-197); test: SPR
T1 chain: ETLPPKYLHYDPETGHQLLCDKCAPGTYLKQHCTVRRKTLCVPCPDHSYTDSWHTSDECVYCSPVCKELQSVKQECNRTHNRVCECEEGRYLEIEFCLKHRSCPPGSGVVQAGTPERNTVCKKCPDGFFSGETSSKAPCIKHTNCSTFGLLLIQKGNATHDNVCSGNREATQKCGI

[2] = target: T2, monomeric RANK (monomeric fragment of RANK) (UniProt O35305 31-214); test: SPR
T2 chain: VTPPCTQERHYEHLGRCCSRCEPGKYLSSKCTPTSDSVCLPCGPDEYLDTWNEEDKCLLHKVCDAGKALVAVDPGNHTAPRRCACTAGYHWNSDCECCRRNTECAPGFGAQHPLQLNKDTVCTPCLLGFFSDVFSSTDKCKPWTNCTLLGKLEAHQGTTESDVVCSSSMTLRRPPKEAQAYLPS

[3] = target: T1, monomeric OPG (monomeric fragment of …); test: SPR
[4] = target: T2, monomeric RANK (monomeric fragment of …); test: SPR
[5] = target: T1, monomeric OPG (monomeric fragment of …); test: yeast surface display titration
[6] = target: T3, monomeric RANK (monomeric fragment of RANK) (UniProt O35305 31-214, limits assumed); test: SPR, htRANKL coupled to the chip, monomeric RANK as analyte (FIG. 3C)
T3 construct: The monomeric RANK of the SPR and the RANK-6xHis of the yeast display are treated here as one molecule; also called RANK-6xHis; RANK-6His
T3 sequence (looked up): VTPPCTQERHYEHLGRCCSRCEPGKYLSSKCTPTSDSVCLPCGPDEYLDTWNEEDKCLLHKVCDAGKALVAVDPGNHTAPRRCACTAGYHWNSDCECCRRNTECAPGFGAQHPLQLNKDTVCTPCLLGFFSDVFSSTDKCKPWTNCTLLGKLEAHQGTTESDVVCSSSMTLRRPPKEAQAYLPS

[7] = target: T4, monomeric OPG (monomeric fragment of OPG) (UniProt O08712 22-197, limits assumed); test: SPR (FIG. 11)
T4 construct: also called OPG-6xHis; unlabeled OPG
T4 sequence (looked up): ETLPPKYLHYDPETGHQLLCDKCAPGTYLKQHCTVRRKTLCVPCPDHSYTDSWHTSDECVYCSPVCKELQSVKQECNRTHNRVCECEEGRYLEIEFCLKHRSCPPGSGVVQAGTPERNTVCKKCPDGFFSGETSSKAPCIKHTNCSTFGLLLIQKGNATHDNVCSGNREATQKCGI

[8] = target: T3, monomeric RANK (monomeric fragment of …); test: SPR, htRANKL variant coupled to the chip, monomeric RANK as analyte (FIG. 3C)
[9] = target: T2, monomeric RANK (monomeric fragment of …); test: yeast surface display titration
[10] = target: T4, monomeric OPG (monomeric fragment of …); test: yeast surface display, flow cytometry titration (FIG. 3B)
[11] = target: T5, RANK on mouse bone marrow macrophages (BMMs) (mouse, UniProt O35305 31-625); test: cell-based or functional assay
T5 sequence (looked up): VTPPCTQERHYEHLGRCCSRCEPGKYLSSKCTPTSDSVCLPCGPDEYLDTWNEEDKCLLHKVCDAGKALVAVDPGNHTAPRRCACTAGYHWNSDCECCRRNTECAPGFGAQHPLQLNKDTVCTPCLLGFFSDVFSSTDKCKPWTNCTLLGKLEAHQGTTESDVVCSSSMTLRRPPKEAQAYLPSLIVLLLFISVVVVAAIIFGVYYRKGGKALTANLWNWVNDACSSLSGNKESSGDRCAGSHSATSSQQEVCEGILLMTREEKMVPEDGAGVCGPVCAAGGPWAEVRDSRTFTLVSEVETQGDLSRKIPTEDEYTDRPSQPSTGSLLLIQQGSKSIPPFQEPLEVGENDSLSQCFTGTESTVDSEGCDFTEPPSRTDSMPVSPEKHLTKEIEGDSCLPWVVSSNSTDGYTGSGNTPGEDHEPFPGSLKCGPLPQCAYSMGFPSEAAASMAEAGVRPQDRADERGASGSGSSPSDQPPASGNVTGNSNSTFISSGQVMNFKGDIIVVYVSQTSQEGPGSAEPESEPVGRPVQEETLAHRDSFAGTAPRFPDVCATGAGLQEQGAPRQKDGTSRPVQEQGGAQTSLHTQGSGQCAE

[12] = target: T3, monomeric RANK (monomeric fragment of …); test: yeast surface display, flow cytometry titration (FIG. 13)
[13] = target: T4, monomeric OPG (monomeric fragment of …); test: yeast surface display, flow cytometry titration (FIG. 13A)

B1: WT-SM htRANKL (homotrimeric mouse RANKL with the solubility mutations C220S/I246E) (ligand)
chain: QPFAHLTINAASIPSGSHKVTLSSWYHDRGWAKISNMTLSNGKLRVNQDGFYYLYANISFRHHETSGSVPTDYLQLMVYVVKTSEKIPSSHNLMKGGSTKNWSGNSEFHFYSINVGGFFKLRAGEEISIQVSNPSLLDPDQDATYFGAFKVQDID
notes: The format differs by assay; also called WT-SM RANKL; WT htRANKL
Kd [1]: 30.5 nM
Kd [2]: 1400 nM
Kd [3]: 30.5 nM
Kd [4]: 1400 nM
Kd [5]: ~32.8 nM
t1/2 (dissociation time) [6]: 3 s
fold decrease in binding against WT htRANKL without the solubility mutations [7]: ~10 fold

B2: KQFH htRANKL (K194E, Q236H, F269Y, H270Y) (ligand)
chain: QPFAHLTINAASIPSGSHKVTLSSWYHDRGWAEISNMTLSNGKLRVNQDGFYYLYANISFRHHETSGSVPTDYLHLMVYVVKTSEKIPSSHNLMKGGSTKNWSGNSEYYFYSINVGGFFKLRAGEEISIQVSNPSLLDPDQDATYFGAFKVQDID
notes: also called RANK^high variant
fold greater affinity than wild-type htRANKL [8]: ~500 fold
fold longer dissociation time than WT htRANKL [8]: 200 fold
t1/2 (dissociation time) [8]: 675 s
Kd [4]: 3.37 nM
Kd [9]: ~1.4 nM
binding result [10]: no binding

B3: K/Q (protein)
chain: MRRASRDYGKYLRSSEEMGSGPGVPHEGPLHPAPSAPAPAPPPAASRSMFLALLGLGLGQVVCSIALFLYFRAQMDPNRISEDSTHCFYRILRLHENADLQDSTLESEDTLPDSCRRMKQAFQGAVQKELQHIVGPQRFSGAPAMMEGSWLDVAQRGKPEAQPFAHLTINAASIPSGSHKVTLSSWYHDRGWAEISNMTLSNGKLRVNQDGFYYLYANICFRHHETSGSVPTDYLHLMVYVVKTSIKIPSSHNLMKGGSTKNWSGNSEFHFYSINVGGFFKLRAGEEISIQVSNPSLLDPDQDATYFGAFKVQDID
Kd [9]: ~69.7 nM

B4: H270Y (protein)
chain: MRRASRDYGKYLRSSEEMGSGPGVPHEGPLHPAPSAPAPAPPPAASRSMFLALLGLGLGQVVCSIALFLYFRAQMDPNRISEDSTHCFYRILRLHENADLQDSTLESEDTLPDSCRRMKQAFQGAVQKELQHIVGPQRFSGAPAMMEGSWLDVAQRGKPEAQPFAHLTINAASIPSGSHKVTLSSWYHDRGWAKISNMTLSNGKLRVNQDGFYYLYANICFRHHETSGSVPTDYLQLMVYVVKTSIKIPSSHNLMKGGSTKNWSGNSEFYFYSINVGGFFKLRAGEEISIQVSNPSLLDPDQDATYFGAFKVQDID
Kd [5]: ~276 nM
Kd [9]: ~465 nM

B5: K194E (protein)
chain: MRRASRDYGKYLRSSEEMGSGPGVPHEGPLHPAPSAPAPAPPPAASRSMFLALLGLGLGQVVCSIALFLYFRAQMDPNRISEDSTHCFYRILRLHENADLQDSTLESEDTLPDSCRRMKQAFQGAVQKELQHIVGPQRFSGAPAMMEGSWLDVAQRGKPEAQPFAHLTINAASIPSGSHKVTLSSWYHDRGWAEISNMTLSNGKLRVNQDGFYYLYANICFRHHETSGSVPTDYLQLMVYVVKTSIKIPSSHNLMKGGSTKNWSGNSEFHFYSINVGGFFKLRAGEEISIQVSNPSLLDPDQDATYFGAFKVQDID
Kd [5]: ~71.7 nM

B6: F269Y (protein)
chain: MRRASRDYGKYLRSSEEMGSGPGVPHEGPLHPAPSAPAPAPPPAASRSMFLALLGLGLGQVVCSIALFLYFRAQMDPNRISEDSTHCFYRILRLHENADLQDSTLESEDTLPDSCRRMKQAFQGAVQKELQHIVGPQRFSGAPAMMEGSWLDVAQRGKPEAQPFAHLTINAASIPSGSHKVTLSSWYHDRGWAKISNMTLSNGKLRVNQDGFYYLYANICFRHHETSGSVPTDYLQLMVYVVKTSIKIPSSHNLMKGGSTKNWSGNSEYHFYSINVGGFFKLRAGEEISIQVSNPSLLDPDQDATYFGAFKVQDID
Kd [5]: ~33.3 nM

B7: Q236H (protein)
chain: MRRASRDYGKYLRSSEEMGSGPGVPHEGPLHPAPSAPAPAPPPAASRSMFLALLGLGLGQVVCSIALFLYFRAQMDPNRISEDSTHCFYRILRLHENADLQDSTLESEDTLPDSCRRMKQAFQGAVQKELQHIVGPQRFSGAPAMMEGSWLDVAQRGKPEAQPFAHLTINAASIPSGSHKVTLSSWYHDRGWAKISNMTLSNGKLRVNQDGFYYLYANICFRHHETSGSVPTDYLHLMVYVVKTSIKIPSSHNLMKGGSTKNWSGNSEFHFYSINVGGFFKLRAGEEISIQVSNPSLLDPDQDATYFGAFKVQDID
Kd [9]: ~346 nM

B8: KQF htRANKL (K194E, Q236H, F269Y) (ligand)
chain: QPFAHLTINAASIPSGSHKVTLSSWYHDRGWAEISNMTLSNGKLRVNQDGFYYLYANISFRHHETSGSVPTDYLHLMVYVVKTSEKIPSSHNLMKGGSTKNWSGNSEYHFYSINVGGFFKLRAGEEISIQVSNPSLLDPDQDATYFGAFKVQDID
Kd [9]: ~23.6 nM

B9: wild-type homotrimeric RANKL without the solubility mutations (WT htRANKL as compared with WT-SM htRANKL in FIG. 5 and FIG. 11) (ligand)
chain: QPFAHLTINAASIPSGSHKVTLSSWYHDRGWAKISNMTLSNGKLRVNQDGFYYLYANICFRHHETSGSVPTDYLQLMVYVVKTSIKIPSSHNLMKGGSTKNWSGNSEFHFYSINVGGFFKLRAGEEISIQVSNPSLLDPDQDATYFGAFKVQDID
Kd [2]: 1230 nM
Kd [3]: 4.75 nM

B10: double-block, RANK^high scRANKL (ligand)
chain: QPFAHLTINAASIPSGSHKVTLSSWYHDRGWAKISNMTLSNGKLRVNQDGFYYLYANISFRGGSHHETSGSVPTDYLHLMVYVVKTSEKIPSSHNLMKGGSTKNWSGNSEFHFYSINVGGFFKLRAGEEISIQVSNPSLLDPDQDATYFGAFKVQDIDGGSGGGSGGGSGQPFAHLTINAASIPSGSHKVTLSSWYHDRGWAKISNMTLSNGKLRVNQDGFYYLYANISFRGGSHHETSGSVPTDYLHLMVYVVKTSEKIPSSHNLMKGGSTKNWSGNSEFHFYSINVGGFFKLRAGEEISIQVSNPSLLDPDQDATYFGAFKVQDIDGGSGGGSGGGSGQPFAHLTINAASIPSGSHKVTLSSWYHDRGWAEISNMTLSNGKLRVNQDGFYYLYANISFRHHETSGSVPTDYLHLMVYVVKTSEKIPSSHNLMKGGSTKNWSGNSEYYFYSINVGGFFKLRAGEEISIQVSNPSLLDPDQDATYFGAFKVQDIDSSGRENLYFQ
IC50 of inhibition of signaling / osteoclast formation stimulated by wild-type htRANKL (TRAP activity, FIG. 4D) [11]: ~10 nM

B11: single-block, RANK^high scRANKL (ligand)
chain: QPFAHLTINAASIPSGSHKVTLSSWYHDRGWAKISNMTLSNGKLRVNQDGFYYLYANISFRGGSHHETSGSVPTDYLHLMVYVVKTSEKIPSSHNLMKGGSTKNWSGNSEFHFYSINVGGFFKLRAGEEISIQVSNPSLLDPDQDATYFGAFKVQDIDGGSGGGSGGGSGQPFAHLTINAASIPSGSHKVTLSSWYHDRGWAEISNMTLSNGKLRVNQDGFYYLYANISFRHHETSGSVPTDYLHLMVYVVKTSEKIPSSHNLMKGGSTKNWSGNSEYYFYSINVGGFFKLRAGEEISIQVSNPSLLDPDQDATYFGAFKVQDIDGGSGGGSGGGSGQPFAHLTINAASIPSGSHKVTLSSWYHDRGWAEISNMTLSNGKLRVNQDGFYYLYANISFRHHETSGSVPTDYLHLMVYVVKTSEKIPSSHNLMKGGSTKNWSGNSEYYFYSINVGGFFKLRAGEEISIQVSNPSLLDPDQDATYFGAFKVQDIDSSGRENLYFQ
IC50 of inhibition of signaling / osteoclast formation stimulated by wild-type htRANKL (TRAP activity, FIG. 4D) [11]: 0.2 nM

B12: CDins/Q236H htRANKL (CDins combined with the Q236H mutation) (ligand)
chain: QPFAHLTINAASIPSGSHKVTLSSWYHDRGWAKISNMTLSNGKLRVNQDGFYYLYANISFRGGSHHETSGSVPTDYLHLMVYVVKTSEKIPSSHNLMKGGSTKNWSGNSEFHFYSINVGGFFKLRAGEEISIQVSNPSLLDPDQDATYFGAFKVQDID
notes: also called variant RANKL that combined CDins with the Q236H mutation
binding result [12]: no binding
binding result [13]: no binding
